{
  "source": "the supplement of paper PMC7125110",
  "parents": {"B1": {"name": "glmS ribozyme (parent)", "chain": "AUAAAAGCGCCAGAACUACAGAAAUGUAGUUGACGAGGAGGAGGUUUAUCGAAUUUUCGGCGGAUGCCUCCAAA"}},
  "note": "± gives the standard error. This sample holds only a part of the variants without activity.",
  "data": [
    {"variants_of": "B1", "experiment": "self-cleavage kobs at 2500 uM GlcN6P; higher = faster cleavage; RNA array", "conditions": "with glucosamine-6-phosphate", "in_short": "(§1)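 Ribozyme variants carrying barcodes were transcribed in situ on sequenced MiSeq chips by E. coli RNA polymerase and tracked at 37 °C with a hybridised Cy3 probe. They were exposed to 40 μM to 10 mM glucosamine-6-phosphate in HEPES/KCl/Mg(OAc)2 buffer. kobs came from exponential decay fits of normalised per-tile medians, and kcat and KM from weighted Michaelis–Menten fits.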", "units": {"self-cleavage kobs at 2500 uM GlcN6P": "s⁻¹"}, "values": [
      {"variant": "AUAAAGGCGCCAGAACUACAGAAAUGUAGUUGACGAGGAGGAGGUUUAUCCAAUUUUCGGCAGAUGCCUCCAAA", "note": "[A6G G51C G62A]", "self-cleavage kobs at 2500 uM GlcN6P": "< 1e-05"},
      {"variant": "AUAAAUGCGCCAGAUCUACAGAAAUGUAGUUGACGCGGAGGAGGUUUAUCGAAUUUUCGGCGGAUGCCUCCAAA", "note": "[A6U A15U A36C]", "self-cleavage kobs at 2500 uM GlcN6P": "< 1e-05"},
      {"variant": "AUAAAUGCGCCAGAACUACAGAAAUGUAGUUGACUAGGAGGAGGUUUAUCUAAUUUUCGGCGGAUGCCUCCAAA", "note": "[A6U G35U G51U]", "self-cleavage kobs at 2500 uM GlcN6P": "< 1e-05"},
      {"variant": "AUAAAGGCGCCAGAACUACAGAAAUGUAGUUGACGAGGAGGAGGUUUAUCGAAUAUUCGGGGGAUGCCUCCAAA", "note": "[A6G U55A C61G]", "self-cleavage kobs at 2500 uM GlcN6P": "< 1e-05"},
      {"variant": "AUAAACGCGCCAGAACUACAGAAAUGUAGUUGACGAGUAGGGGGUUUAUCGAAUUUCCGGCGGAUGCCUCCAAA", "note": "[A6C G38U A42G U57C]", "self-cleavage kobs at 2500 uM GlcN6P": "< 1e-05"},
      {"variant": "AUAAAUGCGCCAGAACUACAGAAAUGUAGUUCAUGAGGAGGAGGUUUAUCGAAUUUUCGGCGGAUGCCUCCAAA", "note": "[A6U G32C C34U]", "self-cleavage kobs at 2500 uM GlcN6P": "< 1e-05"},
      {"variant": "AUAAAGGCGCCAGAACUACAGAAAUGUAGUAGACGAGGAGGAGGUUUAUCGAAUUUUCGGCGGAUGCCUCCAAA", "note": "[A6G U31A]", "self-cleavage kobs at 2500 uM GlcN6P": "0.000107 ± 3.2e-05"},
      {"variant": "AUAAAUGCGCCAGAACUACAGAAAUGUAGUAGACGACGAGGAGGUUUAUCGAAAUUUCGGCGGAUGCCUCCAAA", "note": "[A6U U31A G37C U54A]", "self-cleavage kobs at 2500 uM GlcN6P": "< 1e-05"},
      {"variant": "AUAAAGGCGCCAGCACUACAGAAAUGUAGUUGACGAGGAGGAGGUUUGUCGAAUUUUCGGCGGAUGCCUCCAAA", "note": "[A6G A14C A48G]", "self-cleavage kobs at 2500 uM GlcN6P": "< 1e-05"},
      {"variant": "AUAAAGGCGCCAGUACUACAGAAAUGUAGCUGACGAGGAGGAGGUUUUUCGAAUUUUCGGCGGAUGGGUCCAAA", "note": "[A6G A14U U30C A48U C67G C68G]", "self-cleavage kobs at 2500 uM GlcN6P": "7.37e-05 ± 3e-05"},
      {"variant": "AUAAAUGCGCCAGAACUACAGAAAUGUAGUUGAAGAGGAGGAGAUUUAUCGAAUUUUCGGCGGAUGCCUCCAAA", "note": "[A6U C34A G44A]", "self-cleavage kobs at 2500 uM GlcN6P": "< 1e-05"},
      {"variant": "AUAAAGGCGCCAGAACUACAGAAAUGUAGUUGACGAGAAGGAGGUUUAUGGAAUUUGCGGCGGAUGCUUCCAAA", "note": "[A6G G38A C50G U57G C68U]", "self-cleavage kobs at 2500 uM GlcN6P": "8.04e-05 ± 1.4e-05"},
      {"variant": "AUAAAUGCCCCAGAACUACAGAAAUGUAGUUGCCGAGGAGGAGGUUUAUGGCAUUCUCGGCGGAUGCAUCUAAA", "note": "[A6U G9C A33C C50G A52C U56C C68A C71U]", "self-cleavage kobs at 2500 uM GlcN6P": "< 1e-05"},
      {"variant": "AUAAAUGCGCCAGAACUACAGAAAUGUAGUUGACUAGGAGGAGGAUUAUCGAAUUUACGGCGGAUGCCUCCAAA", "note": "[A6U G35U U45A U57A]", "self-cleavage kobs at 2500 uM GlcN6P": "< 1e-05"},
      {"variant": "AUAAAAACGCCAGAACUACAGAAAUGUAGUUGCCGAGGAGGAGGUUUAUCGAAUUUUUGGCGGAGGCCUGCAAA", "note": "[G7A A33C C58U U65G C70G]", "self-cleavage kobs at 2500 uM GlcN6P": "< 1e-05"},
      {"variant": "AUAAAGGCGCGAGAACUACAGAAAUGUAGUUGACGAGGAGGAGGUUUAUCGAAUUUUCGGCGGAUGCCGCCAAA", "note": "[A6G C11G U69G]", "self-cleavage kobs at 2500 uM GlcN6P": "7.2e-05 ± 2.9e-05"},
      {"variant": "AUAAAGGCUCCAGAACUACAGAAAUGUAUUUGACGAAGAGGAGGUCUAUCGAAUUCUCGGCGGAUGCCUCCAAA", "note": "[A6G G9U G29U G37A U46C U56C]", "self-cleavage kobs at 2500 uM GlcN6P": "< 1e-05"},
      {"variant": "AUAAAAAGGGCAGAACUACAGAAAUGUAGUUGACCAGGAGGAGGUUUAUCGAAUUUUCGGCGGAUGCCUCCAAA", "note": "[G7A C8G C10G G35C]", "self-cleavage kobs at 2500 uM GlcN6P": "< 1e-05"},
      {"variant": "AUAAAAACGCCGGAUCUACAGAAAUGUAGUUGACGAGGAGGAGUAUUAUCGACUUUUCGGCGGAUGCCUCCAAA", "note": "[G7A A12G A15U G44U U45A A53C]", "self-cleavage kobs at 2500 uM GlcN6P": "< 1e-05"},
      {"variant": "AUAAAGGCGGCAGAACUACAGAAAUGUAGAUUACGAGGAGGAGGUUUAUCGAAUUGUCGGCGGAUGCCUCCAAA", "note": "[A6G C10G U30A G32U U56G]", "self-cleavage kobs at 2500 uM GlcN6P": "< 1e-05"},
      {"variant": "AUAAAGGCGCCAGUACUACAGAAAUGUAGUUGACGAGGAGGAGGCUUAUCGAAUUUUCGGCGGAUGCCUCCAAA", "note": "[A6G A14U U45C]", "self-cleavage kobs at 2500 uM GlcN6P": "< 1e-05"},
      {"variant": "AUAAAUGCACCAGAACUACAGAAAUGUAGUUGACGAGGAGGAGGUUUAUCGAAUUUUCGGCGGAUGCUUCCAAA", "note": "[A6U G9A C68U]", "self-cleavage kobs at 2500 uM GlcN6P": "< 1e-05"},
      {"variant": "AUAAAGGCGCCAUAACUACAGAAAUGUAGUUGACGAGGAAGAGGUUUAUCGAAUUUUCGGCGGAUGCCUCUAAA", "note": "[A6G G13U G40A C71U]", "self-cleavage kobs at 2500 uM GlcN6P": "< 1e-05"},
      {"variant": "AUAAAUGCGCCCGAACUACAGAAAUGUAGUUGAUGAGGAGGAGGUUUGUCGAAUUUUCGGGGGUUGCCUCCAAA", "note": "[A6U A12C C34U A48G C61G A64U]", "self-cleavage kobs at 2500 uM GlcN6P": "< 1e-05"},
      {"variant": "AUAAAAACGCCAGAACUACAGAAAUGUAGUUGUCGAGGAGGAGGUUUAUCGAAUUUUCGGGGGAUGCCUGCAAA", "note": "[G7A A33U C61G C70G]", "self-cleavage kobs at 2500 uM GlcN6P": "< 1e-05"},
      {"variant": "AUAAAUGCGCCUGAACUACAGAAAUGUAGUUGACGAGGAGGAGGUUUAUCGAAGUUUCGGCGGAUGCCUCCAAA", "note": "[A6U A12U U54G]", "self-cleavage kobs at 2500 uM GlcN6P": "0.000203 ± 6e-05"},
      {"variant": "AUAAAUGCGCCAGGACUACAGAAAUGUAGUUGACGAGGAGGAGGUUUACCGAAUUUUCGGCGGAUGCCUCCAAA", "note": "[A6U A14G U49C]", "self-cleavage kobs at 2500 uM GlcN6P": "< 1e-05"},
      {"variant": "AUAAAGGCGCCAGAACUACAGAAAUGUAGUUGAAGAGGAGGAGGUUUAUUGAAUUUUCGGCGGAUGCCACCAAA", "note": "[A6G C34A C50U U69A]", "self-cleavage kobs at 2500 uM GlcN6P": "< 1e-05"},
      {"variant": "AUAAAUCGGCCAGAACUACAGAAAUGUAGUUGACGAGGAGGAGGUUUAUCGAAUUUUCGGCGGAUGCCUCCAAA", "note": "[A6U G7C C8G]", "self-cleavage kobs at 2500 uM GlcN6P": "< 1e-05"},
      {"variant": "AUAAAUGCGCCAGAACUACAGAAAUGUAGUUGACGAAGAGGAGGUUUACCGAAAUUUCGGCGGAUGCCUCCAAA", "note": "[A6U G37A U49C U54A]", "self-cleavage kobs at 2500 uM GlcN6P": "< 1e-05"},
      {"variant": "AUAAAGGCGCCAGAACUACAGAAAUGUACUCGACGAGGAGGAGGUUUAUCGAAUUUUCGGCGGAUGCCUCCAAA", "note": "[A6G G29C U31C]", "self-cleavage kobs at 2500 uM GlcN6P": "< 1e-05"},
      {"variant": "AUAAAAAAGCCAGAACUACAGAAAUGUAGUUGACGAGGAGUAGGUUUAUCGAAUUUUCGGCGGAUGCCUCCAAA", "note": "[G7A C8A G41U]", "self-cleavage kobs at 2500 uM GlcN6P": "< 1e-05"},
      {"variant": "AUAAAGGCGCCAGAACUACAGAAAUGUAGUCGACGGGGAGGUGGUUUAUCGAAUUUUCGGCGGAUGCCUCCAAA", "note": "[A6G U31C A36G A42U]", "self-cleavage kobs at 2500 uM GlcN6P": "< 1e-05"},
      {"variant": "AUAAAUGCGCCAGCACUACAGAAAUGUAGUUGACAAGGAGGAGGUUUAUCGAAUUUUCGGCGGAUGCCUCCAAA", "note": "[A6U A14C G35A]", "self-cleavage kobs at 2500 uM GlcN6P": "< 1e-05"},
      {"variant": "AUAAAGGCGCCAGAACUACAGAAAUGUAGUUGACGAGGAGGAGGUUUAUCUAAUUUUUGGCGGAUGCCUCCAAA", "note": "[A6G G51U C58U]", "self-cleavage kobs at 2500 uM GlcN6P": "< 1e-05"}
    ]},
    {"variants_of": "B1", "experiment": "self-cleavage kobs at 10000 uM GlcN6P; higher = faster cleavage; RNA array", "conditions": "with glucosamine-6-phosphate", "in_short": "as §1", "units": {"self-cleavage kobs at 10000 uM GlcN6P": "s⁻¹"}, "values": [
      {"variant": "AUAAAGGCGCCAGAACUACAGAAAUGUAGUAGACGAGGAGGAGGUUUAUCGAAUUUUCGGCGGAUGCCUCCAAA", "note": "[A6G U31A]", "self-cleavage kobs at 10000 uM GlcN6P": "0.000258 ± 6e-05"},
      {"variant": "AUAAAUGCCCCAGAACUACAGAAAUGUAGUUGCCGAGGAGGAGGUUUAUGGCAUUCUCGGCGGAUGCAUCUAAA", "note": "[A6U G9C A33C C50G A52C U56C C68A C71U]", "self-cleavage kobs at 10000 uM GlcN6P": "< 1e-05"}
    ]}
  ]
}
